The record followed here is patent publication US9266939B2, “Compositions comprising natriuretic peptides and methods of use thereof” (Alexion Pharmaceuticals, Inc., priority 2010, dated 2016).

Peptide text beside a SMILES is read from it.

The target in data set [1] is neutral endopeptidase (NEP) (Homo sapiens, UniProt P08473).
The target of data set [2] is T1, NPR-B (Homo sapiens, UniProt P20594).
T1 sequence (P20594 23-1047): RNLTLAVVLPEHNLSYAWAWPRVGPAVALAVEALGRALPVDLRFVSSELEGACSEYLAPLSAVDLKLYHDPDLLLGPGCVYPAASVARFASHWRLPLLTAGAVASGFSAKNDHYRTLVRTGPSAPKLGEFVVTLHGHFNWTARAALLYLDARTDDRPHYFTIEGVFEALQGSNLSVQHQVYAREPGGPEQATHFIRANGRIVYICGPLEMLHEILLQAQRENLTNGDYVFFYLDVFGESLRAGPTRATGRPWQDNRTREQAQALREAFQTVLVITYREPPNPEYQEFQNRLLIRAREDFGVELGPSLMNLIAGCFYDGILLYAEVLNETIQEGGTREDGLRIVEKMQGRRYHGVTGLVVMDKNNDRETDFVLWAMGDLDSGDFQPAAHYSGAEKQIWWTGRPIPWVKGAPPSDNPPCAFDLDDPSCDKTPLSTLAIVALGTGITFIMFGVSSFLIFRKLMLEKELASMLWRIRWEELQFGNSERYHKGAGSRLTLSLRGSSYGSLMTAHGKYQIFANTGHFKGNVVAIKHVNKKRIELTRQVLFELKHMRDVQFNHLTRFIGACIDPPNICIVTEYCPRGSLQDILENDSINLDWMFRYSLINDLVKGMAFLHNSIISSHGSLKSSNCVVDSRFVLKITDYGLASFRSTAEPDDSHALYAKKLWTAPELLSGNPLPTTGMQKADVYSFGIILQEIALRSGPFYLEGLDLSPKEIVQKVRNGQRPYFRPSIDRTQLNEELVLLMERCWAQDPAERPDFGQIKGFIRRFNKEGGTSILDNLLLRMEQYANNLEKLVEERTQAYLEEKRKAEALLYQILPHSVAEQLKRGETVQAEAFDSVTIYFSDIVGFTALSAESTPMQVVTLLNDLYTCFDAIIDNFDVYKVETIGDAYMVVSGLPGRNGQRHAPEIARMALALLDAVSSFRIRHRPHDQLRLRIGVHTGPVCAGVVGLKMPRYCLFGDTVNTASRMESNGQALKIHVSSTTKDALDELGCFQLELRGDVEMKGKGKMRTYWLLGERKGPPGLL
Kind of data set: Whole cell guanylyl cyclase (cGMP) assay, NPR-B. On the set-up: expressed in transfected cells. The format is cell-based. To be noted: for potency compared with CNP22: CNP22 position 17 point mutants, NPR-B whole cell cGMP assay (FIG. 30); for efficacy relative to CNP / potency relative to CNP (times less than that of CNP): NPR-B whole cell assay (FIG. 21C). As to the method: HEK293S cells in a semi-confluent 75 cm2 flask are transfected with 30 μg of plasmid DNA coding for the appropriate receptor, e.g., human NPR-B or NPR-A, using Lipofectamine-2000CD. Alternatively, a stable polyclonal HEK293 S cell line expressing either human NPR-B or NPR-A was used. 24 hours after transfection, cells are trypsinized and plated into 48-well plates at 1×10^5 cells/well. Guanylyl cyclase assay is carried out 24 hours post-plating. Cells are first incubated for 30 minutes at 37° C. with serum-free DMEM medium. Then, they are incubated in triplicate with or without increasing concentrations of reference or test proteins in serum-free DMEM supplemented with 1 mM IBMX and 0.5% BSA, at 37° C. for 30 minutes to one hour. CNP serves as a suitable reference for NPR-B, while ANP is a suitable reference for NPR-A. Finally, cells are washed with ice-cold PBS and solubilized in lysis buffer from Catchpoint cGMP kit (Molecular devices). Concentrations of cGMP in lysate are determined using the Catchpoint cGMP kit. Dose-response curves are analysed with GraphPad Prism 5 software using non-linear regression with four-parameter logistic equation.

Data set [3] concerns the target T1, NPR-B. The experiment in a line: Membrane guanylyl cyclase (cGMP) assay, NPR-B. The format is biochemical.
The mark [4] stands for this setting: first NPR-B membrane assay (FIG. 21A).
[5] abbreviates: second NPR-B membrane assay (FIG. 21B).

neutral endopeptidase (NEP), sequence (P08473 whole entry): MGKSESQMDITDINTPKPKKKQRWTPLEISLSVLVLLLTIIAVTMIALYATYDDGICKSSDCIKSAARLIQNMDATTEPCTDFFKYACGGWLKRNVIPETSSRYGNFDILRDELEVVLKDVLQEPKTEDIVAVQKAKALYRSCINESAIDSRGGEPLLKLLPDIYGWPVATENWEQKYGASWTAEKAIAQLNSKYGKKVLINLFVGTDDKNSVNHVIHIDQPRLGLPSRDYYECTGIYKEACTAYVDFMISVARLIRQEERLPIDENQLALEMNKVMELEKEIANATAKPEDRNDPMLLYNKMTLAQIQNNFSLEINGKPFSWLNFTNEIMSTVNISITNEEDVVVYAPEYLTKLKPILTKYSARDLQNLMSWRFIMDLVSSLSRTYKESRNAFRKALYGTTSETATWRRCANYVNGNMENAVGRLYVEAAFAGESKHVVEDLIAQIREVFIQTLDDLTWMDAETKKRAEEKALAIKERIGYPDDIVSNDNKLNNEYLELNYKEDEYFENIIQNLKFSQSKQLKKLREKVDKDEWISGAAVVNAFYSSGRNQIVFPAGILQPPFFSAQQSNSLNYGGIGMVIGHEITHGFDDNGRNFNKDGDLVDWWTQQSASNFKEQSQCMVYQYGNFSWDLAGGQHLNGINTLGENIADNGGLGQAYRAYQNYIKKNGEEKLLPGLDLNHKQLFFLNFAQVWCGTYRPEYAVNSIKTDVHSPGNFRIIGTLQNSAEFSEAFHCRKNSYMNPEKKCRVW

Regarding `CC[C@H](C)[C@@H]1NC(=O)[C@H](CCCNC(=N)N)NC(=O)[C@H](CC(=O)O)NC(=O)[C@H](CC(C)C)NC(=O)[C@H](CCCCN)NC(=O)[C@H](CC(C)C)NC(=O)CNC(=O)[C@H](Cc2ccccc2)NC(=O)[C@@H](NC(=O)CNC(=O)[C@H](CCCCN)NC(=O)[C@H](CO)NC(=O)[C@H](CC(C)C)NC(=O)CN)CSSC[C@@H](C(=O)NCC(=O)N[C@@H](CO)C(=O)N[C@@H](CC(C)C)C(=O)N[C@@H](CCCNC(=N)N)C(=O)N[C@@H](CC(=O)O)C(=O)N2CCC[C@H]2C(=O)N[C@@H](CCCNC(=N)N)C(=O)N2CCC[C@H]2C(=O)N[C@@H](CC(N)=O)C(=O)N[C@@H](C)C(=O)N2CCC[C@H]2C(=O)N[C@@H](CO)C(=O)N[C@H](C(=O)N[C@@H](CO)C(=O)N[C@@H](C)C(=O)O)[C@@H](C)O)NC(=O)CNC(=O)[C@H](CC(C)C)NC(=O)CNC(=O)[C@H](CO)NC(=O)[C@H](CCSC)NC(=O)[C@H](CO)NC(=O)CNC1=O` [CDNP-G1] (HELM PEPTIDE1{G.L.S.K.G.C.F.G.L.K.L.D.R.I.G.S.M.S.G.L.G.C.G.S.L.R.D.P.R.P.N.A.P.S.T.S.A}$PEPTIDE1,PEPTIDE1,6:R3-22:R3$$$V2.0), the “sensitivity to NEP degradation” value in data set [1] was “comparable NEP sensitivity”.
Same read-out and setting: to `CC[C@H](C)[C@@H]1NC(=O)[C@H](CCCNC(=N)N)NC(=O)[C@H](CC(=O)O)NC(=O)[C@H](CC(C)C)NC(=O)[C@H](CCCCN)NC(=O)[C@H](CC(C)C)NC(=O)CNC(=O)[C@H](Cc2ccccc2)NC(=O)[C@@H](NC(=O)CNC(=O)[C@H](CCCCN)NC(=O)[C@H](CO)NC(=O)[C@H](CC(C)C)NC(=O)CN)CSSC[C@@H](C(=O)N[C@@H](Cc2c[nH]cn2)C(=O)N[C@@H](CO)C(=O)N[C@@H](CC(C)C)C(=O)N[C@@H](CCCNC(=N)N)C(=O)N[C@@H](CC(=O)O)C(=O)N2CCC[C@H]2C(=O)N[C@@H](CCCNC(=N)N)C(=O)N2CCC[C@H]2C(=O)N[C@@H](CC(N)=O)C(=O)N[C@@H](C)C(=O)N2CCC[C@H]2C(=O)N[C@@H](CO)C(=O)N[C@H](C(=O)N[C@@H](CO)C(=O)N[C@@H](C)C(=O)O)[C@@H](C)O)NC(=O)CNC(=O)[C@H](CC(C)C)NC(=O)CNC(=O)[C@H](CO)NC(=O)[C@H](CCSC)NC(=O)[C@H](CO)NC(=O)CNC1=O` [CDNP-H1] (HELM PEPTIDE1{G.L.S.K.G.C.F.G.L.K.L.D.R.I.G.S.M.S.G.L.G.C.H.S.L.R.D.P.R.P.N.A.P.S.T.S.A}$PEPTIDE1,PEPTIDE1,6:R3-22:R3$$$V2.0) belongs “comparable NEP sensitivity”; to `CC[C@H](C)[C@@H]1NC(=O)[C@H](CCCNC(=N)N)NC(=O)[C@H](CC(=O)O)NC(=O)[C@H](CC(C)C)NC(=O)[C@H](CCCCN)NC(=O)[C@H](CC(C)C)NC(=O)CNC(=O)[C@H](Cc2ccccc2)NC(=O)[C@@H](NC(=O)CNC(=O)[C@H](CCCCN)NC(=O)[C@H](CO)NC(=O)[C@H](CC(C)C)NC(=O)CN)CSSC[C@@H](C(=O)N[C@@H](CCCCN)C(=O)N[C@@H](CO)C(=O)N[C@@H](CC(C)C)C(=O)N[C@@H](CCCNC(=N)N)C(=O)N[C@@H](CC(=O)O)C(=O)N2CCC[C@H]2C(=O)N[C@@H](CCCNC(=N)N)C(=O)N2CCC[C@H]2C(=O)N[C@@H](CC(N)=O)C(=O)N[C@@H](C)C(=O)N2CCC[C@H]2C(=O)N[C@@H](CO)C(=O)N[C@H](C(=O)N[C@@H](CO)C(=O)N[C@@H](C)C(=O)O)[C@@H](C)O)NC(=O)CNC(=O)[C@H](CC(C)C)NC(=O)CNC(=O)[C@H](CO)NC(=O)[C@H](CCSC)NC(=O)[C@H](CO)NC(=O)CNC1=O` [CDNP-K1] (HELM PEPTIDE1{G.L.S.K.G.C.F.G.L.K.L.D.R.I.G.S.M.S.G.L.G.C.K.S.L.R.D.P.R.P.N.A.P.S.T.S.A}$PEPTIDE1,PEPTIDE1,6:R3-22:R3$$$V2.0), “slightly more sensitive to NEP than the other CDNP variants”; to `CC[C@H](C)[C@@H]1NC(=O)[C@H](CCCNC(=N)N)NC(=O)[C@H](CC(=O)O)NC(=O)[C@H](CC(C)C)NC(=O)[C@H](CCCCN)NC(=O)[C@H](CC(C)C)NC(=O)CNC(=O)[C@H](Cc2ccccc2)NC(=O)[C@@H](NC(=O)CNC(=O)[C@H](CCCCN)NC(=O)[C@H](CO)NC(=O)[C@H](CC(C)C)NC(=O)CN)CSSC[C@@H](C(=O)N[C@@H](CC(N)=O)C(=O)N[C@@H](CO)C(=O)N[C@@H](CC(C)C)C(=O)N[C@@H](CCCNC(=N)N)C(=O)N[C@@H](CC(=O)O)C(=O)N2CCC[C@H]2C(=O)N[C@@H](CCCNC(=N)N)C(=O)N2CCC[C@H]2C(=O)N[C@@H](CC(N)=O)C(=O)N[C@@H](C)C(=O)N2CCC[C@H]2C(=O)N[C@@H](CO)C(=O)N[C@H](C(=O)N[C@@H](CO)C(=O)N[C@@H](C)C(=O)O)[C@@H](C)O)NC(=O)CNC(=O)[C@H](CC(C)C)NC(=O)CNC(=O)[C@H](CO)NC(=O)[C@H](CCSC)NC(=O)[C@H](CO)NC(=O)CNC1=O` [CDNP-N1] (HELM PEPTIDE1{G.L.S.K.G.C.F.G.L.K.L.D.R.I.G.S.M.S.G.L.G.C.N.S.L.R.D.P.R.P.N.A.P.S.T.S.A}$PEPTIDE1,PEPTIDE1,6:R3-22:R3$$$V2.0), “comparable NEP sensitivity”.
As for “CNP-F17: CNP22 point mutant at position 17; SEQ ID NO: 119 (GLSKGCFGLKLDRIGSFSGLGC; Synthetic Construct (CNP-F17 (C15)))”, the “potency compared with CNP22” value with NPR-B [2] is recorded as “comparable potency to CNP22”.
Still for that read-out and setting: the result for “CNP-L17: CNP22 point mutant at position 17; SEQ ID NO: 120 (GLSKGCFGLKLDRIGSLSGLGC; Synthetic Construct (CNP-L17 (C16)))” reads “comparable potency to CNP22”; that for “CNP-R17: CNP22 point mutant at position 17; SEQ ID NO: 157 (GLSKGCFGLKLDRIGSRSGLGC; Synthetic Construct (CNP-R17))”, “improved potency”.
Regarding “CNP-T17: CNP22 point mutant at position 17; SEQ ID NO: 122 (GLSKGCFGLKLDRIGSTSGLGC; Synthetic Construct (CNP-T17 (C18)))”, in the data set with NPR-B [2], the “potency compared with CNP22” value is “comparable potency to CNP22”.
On the same count and under the same terms, the result for “CNP-Y17: CNP22 point mutant at position 17; SEQ ID NO: 158 (GLSKGCFGLKLDRIGSYSGLGC; Synthetic Construct (CNP-Y17))” reads “improved potency”.
For the molecule “Fc-CNP53-A: N-terminal Fc, Gly3 linker, CNP53 with position 48 mutated to alanine; SEQ ID NO: 518”, the “efficacy relative to CNP” value is reported as “comparable efficacy” in the data set with NPR-B [2], “slightly better efficacy than CNP” with NPR-B [3] (setting [4]) and “comparable efficacy” in the data set with NPR-B [3] (setting [5]). The “potency relative to CNP (times less than that of CNP)” value in the data set with NPR-B [2] is reported as 5.4 times; with NPR-B [3] (setting [4]), “more than twice the potency as CNP”; in the data set with NPR-B [3] (setting [5]) it was 1.3 times.
As for “Fc-CNP53-AAA: Fc-CNP53-A with residues 30 and 31 of CNP53 mutated to alanine; SEQ ID NO: 520”, the “efficacy relative to CNP” value with NPR-B [2] is given as 74%; in the data set with NPR-B [3] (setting [4]), “about two-thirds of CNP's efficacy”; with NPR-B [3] (setting [5]), “comparable efficacy”. Further, the “potency relative to CNP (times less than that of CNP)” value was 14 times in the data set with NPR-B [2], 1.5 times in the data set with NPR-B [3] (setting [4]) and 3.3 times with NPR-B [3] (setting [5]).
